Results reported in patent US20030175703, “RNA aptamers and methods for identifying the same” (published 2003).
Where two headings read alike, the source gives them in different places.

What was measured:
[1] = target: T1, coagulation factor IX (FIX) (UniProt P00740 P00740:47-461); test: ±0.7
[2] = target: T2, coagulation factor IXa (FIXa) (UniProt P00740;P00740 P00740:47-191,P00740:227-461); test: filter; ±0.2; 500-700 pM in Table 1
[3] = target: T2, coagulation factor IXa (FIXa); test: ±0.05; p287 gives about 1 to 3 nM; conditions: stem-loop
[4] = target: T1, coagulation factor IX (FIX); test: ±0.8; p287 gives about 6 to 10 nM; conditions: stem-loop
[5] = target: T2, coagulation factor IXa (FIXa); test: competition; cholesterol has modest effect on affinity
[6] = target: coagulation factor VIIa (FVIIa) (UniProt P08709;P08709 P08709:61-212,P08709:213-466); test: competition; physiologic conditions
[7] = target: thrombin (F2) (human, UniProt P00734;P00734 P00734:328-363,P00734:364-622); test: filter; ±0.7
[8] = target: T3, angiopoietin-2 (Ang2) (UniProt O15123 O15123:19-496); test: FIG. 27 gives <10 nM; about 1 nM in competition (FIG. 29)
[9] = target: T3, angiopoietin-2 (Ang2)

B1: RNA 9.3 (ssRNA)
RNA: GGGAGAGAGGAAGAGGGAUGGGGACUAUACCGCGUAAUGCUGCCUCCCCAUUCCGGAACGCUCAUAACCCAGAGGUCGAUAGUACUGGAUCCCCCC
modifications: 2'-F pyrimidines
Kd [1]: 3.96 nM
Kd [2]: 0.65 nM

B2: 9.3t (ssRNA)
RNA: AUGGGGACUAUACCGCGUAAUGCUGCCUCCCCAU
Kd [3]: 0.58 nM
Kd [4]: 4.7 nM

B3: 9.3t-C (ssRNA)
RNA: AUGGGGACUAUACCGCGUAAUGCUGCCUCCCCAU
modifications: 5' cholesterol
binding result [5]: binds

B4: 10.15 (ssRNA)
RNA: GGGAGAGAGGAAGAGGGAUGGGAAGCUCCAUCCAAGCGACGACACGCUCGUCCCGAAAAGAAUCAUAACCCAGAGGUCGAU
modifications: 2'-F pyrimidines
Kd [6]: ~6.33 nM

B5: TOG 25 (TOGGLE-25) (ssRNA)
RNA: GGGAGAGAGGAAGAGGGAUGGGGAACAAAGCUGAAGUACUUACCCAAGAUCAUCCCGAACGACAUAACCCAGAGGUCGAUAGUACUGGAUCCCCCC
Kd [7]: 2.8 nM

B6: ANG11-1 (ssRNA)
RNA: GGGAGGACGAUGCGGACUAGCCUCAUCAGCUCAUGUGCCCCUCCGCCUGGAUCACCAGACGACUCGCUGAGGAUCCGAGA
modifications: 2'-F
Kd [8]: ~5 nM

B7: Ang2 aptamer 9-5 (ssRNA)
RNA: GGGAGGACGAUGCGGCGAUCUUUUCGUCAACCGCACGUUGAACUCGGCUCGGCACCAGACGACUCGCUGAGGAUCCGAGA
modifications: 2'-F
Kd [9]: ~5 nM
